The values below come from patent publication US20250109209A1 (ABSCI, published 2025).

Residue numbers refer to the chain shown, from its start.

The IC50 is the midpoint of a concentration-inhibition curve. The Kd is the free concentration of one partner at which half of the binding sites on the other are occupied at equilibrium, for simple one-to-one binding. A lower Kd goes with a tighter complex.

T1: human TL1A (human, UniProt O95150 72-251)
T1 construct: Antigen in SPR and ELISA; Also used here for places that print only 'TL1A' and for endogenous TL1A in human whole blood; also called TNFSF15
T1 sequence (looked up): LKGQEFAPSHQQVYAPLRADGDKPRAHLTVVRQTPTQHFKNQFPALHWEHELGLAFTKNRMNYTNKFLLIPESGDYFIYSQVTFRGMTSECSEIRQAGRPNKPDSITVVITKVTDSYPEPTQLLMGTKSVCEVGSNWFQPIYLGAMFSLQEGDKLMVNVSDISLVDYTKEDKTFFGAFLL

T2: Cyno TL1A (cyno, UniProt G7PRK8 72-251)
T2 sequence: T1 sequence (looked up) with F39L, I78V

T3: mouse TL1A (mouse, UniProt Q5UBV8 76-252, limits assumed)
T3 sequence (looked up): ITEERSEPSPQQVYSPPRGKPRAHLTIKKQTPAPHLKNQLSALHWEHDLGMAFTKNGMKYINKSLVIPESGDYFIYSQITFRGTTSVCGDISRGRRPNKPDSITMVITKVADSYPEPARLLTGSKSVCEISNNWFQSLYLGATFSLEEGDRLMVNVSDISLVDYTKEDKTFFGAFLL

B1: RVT-3101 (antibody, V domains shown)
VH: QVQLVQSGAEVKKPGASVKVSCKASGYDFTYYGISWVRQAPGQGLEWMGWISTYNGNTHYARMLQGRVTMTTDTSTRTAYMELRSLRSDDTAVYYCARENYYGSGAYRGGMDVWGQGTTVTVSS
VL: EIVLTQSPATLSLSPGERATLSCRASQSVSSYLAWYQQKPGQAPRLLIYDASNRATGIPARFSGSGSGTDFTLTISSLEPEDFAVYYCQQRSNWPWTFGQGTKVEIK
B2: TEV-48574 (antibody, V domains shown)
VH: QVQLVQSGAEVKKPGASVKVSCKASGYTFTSYDINWVRQAPGQGLEWMGWLNPNSGYTGYAQKFQGRVTMTADRSTSTAYMELSSLRSEDTAVYYCAREVPETAAFEYWGQGTLVTVSS
VL: QSVLTQPPSVSGAPGQRVTISCTSSSSDIGAGLGVHWYQQLPGTAPKLLIEGYYNRPSGVPDRFSGSKSGTSASLTITGLLPEDEGDYYCQSWDGTLSALFGGGTKLTVLR
B3: Antibody 2 (mAb format) (antibody, human IgG1, kappa, N297A)
heavy: QVQLQESGPGLVRPSQTLSLTCTVSGLDPDDTYMHWVRQRPGRGLEWMGRIEPAGGHTKYNPSLKSRVTITRDTSKNQVSLRLSSVTAADTAVYYCVISGGLPDVWGQGSLVTVSSASTKGPSVFPLAPSSKSTSGGTAALGCLVKDYFPEPVTVSWNSGALTSGVHTFPAVLQSSGLYSLSSVVTVPSSSLGTQTYICNVNHKPSNTKVDKKVEPKSCDKTHTCPPCPAPELLGGPSVFLFPPKPKDTLMISRTPEVTCVVVDVSHEDPEVKFNWYVDGVEVHNAKTKPREEQYASTYRVVSVLTVLHQDWLNGKEYKCKVSNKALPAPIEKTISKAKGQPREPQVYTLPPSRDELTKNQVSLTCLVKGFYPSDIAVEWESNGQPENNYKTTPPVLDSDGSFFLYSKLTVDKSRWQQGNVFSCSVLHEALHSHYTQKSLSLSPGK
light: DIQMTQSPSSLSASVGDRVTITCRASSSVSYMYWYQQKPGKAPKLLIYATSNLASGVPSRFSGSGSGTDFTFTISSLQPEDIATYYCQQWEGNPRTFGQGTKVEIKRTVAAPSVFIFPPSDEQLKSGTASVVCLLNNFYPREAKVQWKVDNALQSGNSQESVTEQDSKDSTYSLSSTLTLSKADYEKHKVYACEVTHQGLSSPVTKSFNRGEC
notes: also called high priority lead mAb
B4: Antibody 10 (mAb format) (antibody, human IgG1, kappa, N297A)
heavy: B3 heavy
light: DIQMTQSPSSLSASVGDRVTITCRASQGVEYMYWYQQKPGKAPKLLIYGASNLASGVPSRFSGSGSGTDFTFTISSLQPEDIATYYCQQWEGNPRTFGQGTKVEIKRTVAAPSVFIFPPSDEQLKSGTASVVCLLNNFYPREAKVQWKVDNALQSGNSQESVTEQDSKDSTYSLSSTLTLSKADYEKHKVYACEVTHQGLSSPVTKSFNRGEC
notes: as for B3
B5: Antibody 12 (mAb format) (antibody, human IgG1, kappa, N297A)
heavy: B3 heavy with L27F, P29I, D30T, I98R
light: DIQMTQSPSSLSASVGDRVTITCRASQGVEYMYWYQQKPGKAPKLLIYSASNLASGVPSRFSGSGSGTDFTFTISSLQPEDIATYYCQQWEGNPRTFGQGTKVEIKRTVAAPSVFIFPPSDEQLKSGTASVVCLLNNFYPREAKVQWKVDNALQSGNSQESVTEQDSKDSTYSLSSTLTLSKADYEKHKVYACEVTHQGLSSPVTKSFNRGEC
notes: as for B3
B6: Antibody 14 (mAb format) (antibody, human IgG1, kappa, N297A)
heavy: B3 heavy
light: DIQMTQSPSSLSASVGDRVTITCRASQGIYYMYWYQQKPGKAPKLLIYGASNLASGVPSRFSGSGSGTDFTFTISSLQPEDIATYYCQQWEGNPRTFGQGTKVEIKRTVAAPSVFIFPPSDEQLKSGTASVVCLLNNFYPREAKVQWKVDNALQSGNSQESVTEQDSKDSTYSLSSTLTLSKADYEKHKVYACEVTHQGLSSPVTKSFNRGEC
notes: as for B3
B7: Antibody 20 (mAb format) (antibody, human IgG1, kappa, N297A)
heavy: B3 heavy with L27F, P29I, D30Q, G55S, V97A, I98R, L102M, V105M
light: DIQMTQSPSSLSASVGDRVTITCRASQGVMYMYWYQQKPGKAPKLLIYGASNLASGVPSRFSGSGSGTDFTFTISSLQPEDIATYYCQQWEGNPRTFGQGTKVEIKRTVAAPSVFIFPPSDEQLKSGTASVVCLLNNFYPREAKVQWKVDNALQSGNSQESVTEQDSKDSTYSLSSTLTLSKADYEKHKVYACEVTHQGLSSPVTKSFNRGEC
notes: as for B3
B8: Antibody 17 (mAb format) (antibody, human IgG1, kappa, N297A)
heavy: B3 heavy with L27F, P29M, D30G, G55A, I98R
light: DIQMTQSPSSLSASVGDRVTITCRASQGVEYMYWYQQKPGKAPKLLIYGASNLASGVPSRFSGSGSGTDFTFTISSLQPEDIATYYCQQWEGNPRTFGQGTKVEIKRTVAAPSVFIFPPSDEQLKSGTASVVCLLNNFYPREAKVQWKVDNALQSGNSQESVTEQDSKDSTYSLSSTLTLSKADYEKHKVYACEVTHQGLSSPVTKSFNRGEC
notes: as for B3
B9: Antibody 13 (mAb format) (antibody, human IgG1, kappa, N297A)
heavy: B3 heavy with L27F, P29Y, D30Q, E52D, G55S, V97A, I98V, L102M
light: B3 light with S27Q, S28G, S30E
notes: as for B3
B10: Antibody 18 (mAb format) (antibody, human IgG1, kappa, N297A)
heavy: B3 heavy with L27F, P29M, D30G, I98R, L102M
light: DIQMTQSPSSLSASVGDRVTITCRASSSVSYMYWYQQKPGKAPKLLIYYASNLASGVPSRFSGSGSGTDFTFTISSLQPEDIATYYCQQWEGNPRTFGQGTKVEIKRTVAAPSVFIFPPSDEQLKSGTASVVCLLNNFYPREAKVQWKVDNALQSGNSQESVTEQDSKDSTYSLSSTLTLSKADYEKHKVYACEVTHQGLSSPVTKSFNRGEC
notes: as for B3
B11: Antibody 15 (mAb format) (antibody, human IgG1, kappa, N297A)
heavy: B3 heavy with L27F, P29I, D30Q, I98R, V105A
light: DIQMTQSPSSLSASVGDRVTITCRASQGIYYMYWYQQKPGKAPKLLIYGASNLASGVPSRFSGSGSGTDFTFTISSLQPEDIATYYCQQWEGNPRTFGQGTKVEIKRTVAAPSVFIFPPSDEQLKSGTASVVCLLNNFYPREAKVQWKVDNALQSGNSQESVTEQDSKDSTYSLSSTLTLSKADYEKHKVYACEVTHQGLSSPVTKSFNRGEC
notes: as for B3
B12: Antibody 19 (mAb format) (antibody, human IgG1, kappa, N297A)
heavy: B3 heavy with L27F, P29I, D30T, I98R
light: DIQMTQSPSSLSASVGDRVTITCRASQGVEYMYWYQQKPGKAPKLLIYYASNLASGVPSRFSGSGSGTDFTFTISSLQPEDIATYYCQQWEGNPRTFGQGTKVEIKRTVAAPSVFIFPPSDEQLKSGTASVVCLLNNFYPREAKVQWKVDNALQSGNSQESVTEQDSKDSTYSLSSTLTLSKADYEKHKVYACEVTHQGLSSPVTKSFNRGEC
notes: as for B3
B13: Heron2B-Toci (Fab, V domains shown)
VH: QVQLQESGPGLVRPSQTLSLTCTVSGFDIQDTYMHWVRQRPGRGLEWMGRIDPASGHTKYNPSLKSRVTITRDTSKNQVSLRLSSVTAADTAVYYCARSGGLPDVWGQGSLVTVSS
VL: DIQMTQSPSSLSASVGDRVTITCRASSSVSYMYWYQQKPGKAPKLLIYATSNLASGVPSRFSGSGSGTDFTFTISSLQPEDIATYYCQQWEGNPRTFGQGTKVEIK
notes: also called Heron2B-toci parent

T4 sequence (P55899 24-297 limits assumed, chain 1 of 2): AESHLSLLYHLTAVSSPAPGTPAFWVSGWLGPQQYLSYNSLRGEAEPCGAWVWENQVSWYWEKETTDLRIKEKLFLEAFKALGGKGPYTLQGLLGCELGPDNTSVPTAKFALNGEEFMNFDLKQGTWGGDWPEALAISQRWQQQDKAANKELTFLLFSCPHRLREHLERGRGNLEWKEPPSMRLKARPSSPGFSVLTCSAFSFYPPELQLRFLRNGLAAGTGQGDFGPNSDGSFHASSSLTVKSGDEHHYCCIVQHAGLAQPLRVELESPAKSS
T4 sequence (P61769 21-119 limits assumed, chain 2 of 2): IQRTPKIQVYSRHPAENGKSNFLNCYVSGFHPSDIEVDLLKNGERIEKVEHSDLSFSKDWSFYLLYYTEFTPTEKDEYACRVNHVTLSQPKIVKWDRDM

One assay addresses T1, human TL1A. The experiment in a line: selectivity ELISA: antibody pre-incubated with TL1A, inhibition of TL1A binding to plate-coated DR3. (In general: In an ELISA, binding on a coated surface is turned into a signal by an enzyme label.)
Molecule B1 gave an IC50 of 4.4 µg/mL.
Still for that read-out and setting: the figure for B2 is 2.6 µg/mL.

The next assay addresses T4, FcRn (UniProt P55899 24-297; P61769 21-119).
T4 construct: also called neonatal receptor
As to the kind of experiment: SPR, mAb format, FcRn at pH 6.0, average. (In general: SPR reads the build-up and loss of mass on a sensor chip optically.)
As for B3, the Kd came out at 17.1 nM.
B4 displayed a dissociation constant (Kd) of 22.1 nM.
The same measure, in the same setting: for B5 the value was 19.7 nM; for B6, 19.8 nM; for B7, 16.4 nM.
B8 showed a Kd of 17.4 nM. This Kd and that of the molecule before are within 1.5-fold of each other.
On the same count and under the same terms, for B9 the value was 18.8 nM; for B10, 16.2 nM.
In the case of B11, the Kd turned out to be 17.4 nM.
Same read-out and setting: for B12 the value was 16.5 nM.

The target of another assay is T1, human TL1A. The experiment in a line: SPR, affinity capture of Fab, average.
B13 returned a Kd of 5.71 nM.

A further assay deals with T2, Cyno TL1A. The experiment in a line: SPR, mAb format, average.
Consider B3, for which the Kd amounted to 0.408 nM.
On the same count and under the same terms, for B4 the value was 0.253 nM; for B5, 0.118 nM.
Molecule B6 had a Kd of 0.224 nM.
With B7, binding was characterised by a dissociation constant (Kd) of 0.046 nM.
On the same count and under the same terms, for B8 the value was 0.099 nM; for B9, 0.154 nM.
Still for that read-out and setting: for B10 the value was 0.087 nM; for B11, 0.046 nM; for B12, 0.123 nM.

In another assay the target is T3, mouse TL1A. The experiment in a line: SPR, mAb format, average.
Molecule B5 returned a Kd of 13100 nM.
B6 returned a Kd of 3810 nM. Compared with the last molecule, the Kd is about 3.4-fold lower.
Consider B7, for which the dissociation constant (Kd) was 391 nM.
Regarding B8, the dissociation constant Kd was 452 nM.
B10: the Kd turned out to be 397 nM.
Same read-out and setting: for B11 the value was 162 nM; for B12, 691 nM.

A further assay deals with T1, human TL1A. The experiment in a line: SPR, mAb format, average.
The molecule B3 yielded a Kd of 0.195 nM.
The same measure, in the same setting: for B4 the value was 0.482 nM.
The same measure, in the same setting: the figure for B5 is 0.17 nM.
On the same count and under the same terms, for B6 the value was 0.296 nM; for B7, 0.079 nM; for B8, 0.172 nM.
Molecule B9 registered a Kd of 0.385 nM.
The same measure, in the same setting: for B10 the value was 0.252 nM.
The same measure, in the same setting: the figure for B11 is 0.067 nM; for B12 it is 0.38 nM.

The next assay concerns the target T1, human TL1A. As to the kind of experiment: selectivity ELISA: antibody pre-incubated with TL1A, inhibition of TL1A binding to plate-coated DcR3.
B1 returned a 50% inhibitory concentration (IC50) of 0.8 µg/mL.
On the same count and under the same terms, the figure for B2 is 0.7 µg/mL.

The next assay concerns the target T1, human TL1A. As to the kind of experiment: SPR, mAb format, average. The source holds these as a separate data set.
The molecule B3 displayed a Kd of 0.195 nM. That is a sub-nanomolar value.
Take B4: the Kd was found to be 0.482 nM.
With B5, binding was characterised by a dissociation constant (Kd) of 0.17 nM.
On the same count and under the same terms, the figure for B6 is 0.296 nM; for B7 it is 0.079 nM.
As to B8, the Kd amounted to 0.172 nM.
As to B9, the Kd stood at 0.385 nM.
On the same count and under the same terms, for B10 the value was 0.252 nM; for B11, 0.067 nM.
Molecule B12 yielded a Kd of 0.38 nM.

In the next assay the target is T1, human TL1A. The experiment in a line: SPR, mAb format, average. This is another data set of the same source.
With B3, the affinity, expressed as Kd, was 0.195 nM. That is a sub-nanomolar value.
Same read-out and setting: the figure for B4 is 0.482 nM.
Take B5: the Kd came out at 0.17 nM. This Kd lies about 2.8-fold lower than the previous one.
B6 showed a dissociation constant (Kd) of 0.296 nM.
The same measure, in the same setting: the figure for B7 is 0.079 nM.
On the same count and under the same terms, for B8 the value was 0.172 nM; for B9, 0.385 nM.
Still for that read-out and setting: the figure for B10 is 0.252 nM; for B11 it is 0.067 nM.
B12 displayed a dissociation constant Kd of 0.38 nM.

In another assay the target is T3, mouse TL1A. The experiment in a line: SPR, mAb format.
For the molecule B3, the binding result is “no binding”.
Still for that read-out and setting: for B4 the value was “no binding”; for B9, “no binding”.
